Measurements from paper PMC11488661 (Science immunology, 2024).
Substitutions are numbered along the chain they refer to.

B1: g5-D78-10_CLK19 (antibody, V domains shown)
VH: QVQLVQSGAEVKKPGASVKVSCKASGYTFTGYFIHWVRQAPGQGLEWMGWINPSYGAVNYARKFQGRVTMTRDTSISTAYMELQRLRSDDTAIYHCTIALAGYRWGFDYWGQGALVTVSS
VL: DIQMTQSPSSLSAFVGDRVTITCQARLDIRYSLNWYQQKPGKAPNLLIYDASNLETGVPSRFSGSGSGTNFTFTISTLQPEDIATYYCQQYETFGPGTKVHIK
B2: g5-D78-14_CLK19 (antibody, V domains shown)
VH: B1 VH with F33Y, S77T, H95Y
VL: B1 VL with S76N, H101D
B3: g5-D78-22_CLK19 (antibody, V domains shown)
VH: B1 VH with F33Y, Q43H, M48L, S54N, M70L, Y80F, R85S, A99S
VL: B1 VL with A51V, T56I, H101D
B4: g5-D78-7_CLK19 (antibody, V domains shown)
VH: B1 VH with F33Y
VL: B1 VL with R30S, T74A, T77A
B5: g5-D78-12_CLK19 (antibody, V domains shown)
VH: B1 VH with F33Y
VL: B1 VL with S76N, H101D
B6: g5-D78-16_CLK19 (antibody, V domains shown)
VH: B1 VH with F33Y
VL: B1 VL with I102F
B7: g5-D78-18_CLK19 (antibody, V domains shown)
VH: B1 VH with F33Y, S54T, R85S
VL: B1 VL with H101D
B8: g5-D78-13_CLK19 (antibody, V domains shown)
VH: QVQLVQSGAEVKKPGASVKVSCKASGYIFTDYNMHWVRQAPGQGLEWMGWINPSFGGRNIVQKFQGRVTMTRDTSISTAYMELSGLRSDDTAVYFCTPVLAPFRWRFAYWGQGTLVTVSS
VL: DIQMTQSPSSLSASVGDRVTITCQASQDINYLNWYQQKPGKAPKLLIYDASNLETGVPSRFSGSGSGTDFTFTISSLQPEDIATYYCQQYAAFGPGTKVNIK
B9: g5-D78-3_CLK19 (antibody, V domains shown)
VH: B8 VH with R106P
VL: B8 VL with N100D, I101N
B10: g5-D78-9_CLK19 (antibody, V domains shown)
VH: B8 VH with S54R, R106P
VL: B8 VL with N100D
B11: g5-D78-20_CLK19 (antibody, V domains shown)
VH: B8 VH with G49A, S54R, F55S, Y80F
VL: B8 VL with D81N, N100D
B12: g5-D78-15_CLK19 (antibody, V domains shown)
VH: B8 VH with R106P, A108V
VL: B8 VL with T71S, N100D
B13: g5-D78-4_CLK19 (antibody, V domains shown)
VH: B8 VH with S54R, I76S, R106P
VL: B8 VL with N100D
B14: GT8-D36-10_CLK19 (antibody, V domains shown)
VH: QVQLVQSGAEVKKPGASVKVSCKASGYSFTGYYIHWVRQAPGQGLEWMGWTNPNSGGTNYAQKLEGRVTMTRDTSISTAYMELSRLRFDDTAVYYCALAGYRWRFDYWGQGTLVTVSS
VL: not shown
B15: g5-D78-2_CLK19 (antibody, V domains shown)
VH: QVQLVQSGAEVKKPGASVKVSCKTSGYTFTGYFLHWVRQAPGQGLEWMGWINPNSGGINYAQKFQGRVTMTRDTSINTAYMELSRLRSDDTAVYYCTPVLTNFRWPFAFWGQGTLVTVSS
VL: DIQMTQSPSSLSASVGDRVTITCQASQDIKNYLNWYQQKPGTAPKLLIYDTSNLETGVPSRFSGRGSGTDFTFTISSLQPEDIATYYCQQYETFGPGTKVDIK
B16: g5-D78-21_CLK19 (antibody, V domains shown)
VH: B15 VH
VL: B15 VL with R65S
B17: g5-D78-5_CLK19 (antibody, V domains shown)
VH: B15 VH with T24A, G31D, S55R, I58V, V99I, P106R, A108D
VL: B15 VL with K30Q, R65S, T72I, T93A
B18: g5-D78-6_CLK19 (antibody, V domains shown)
VH: B15 VH with N77H
VL: B15 VL with R65G
B19: g5-D78-19_CLK09 (antibody, V domains shown)
VH: QVQLVQSGAEVKKPGVSVKVSCKASGYTFNGYYMHWVRQAPGQGLEWMGWINPNNGGMNVARRFQDRVTLTRDTSFTTAYMELSRLRSDDSAVYYCARVGGLWFGEKWTFDIWGQGTMVTVSS
VL: DIQMTQSPSSLSASVGDRVTITCQTSQDISTFLNWYQQRPGKAPKLLIYGASNLATGVPSRFSGSGSGTDFTFTISSLQPEDIATYYCQQYEFFGGGTKVEIK
B20: GT8-D36-17_CLK09 (antibody, V domains shown)
VH: QVQLVQSGAEVKKPGASVKVSCKASGYTFSGYYIHWVRQAPGQGLKWMGWINPNSGGTNYAQKFQGRVTMTRDTSISTAYLELSRLRSDDTAVYYCARVEGLWTFDIWGQGTMVTVSS
VL: B19 VL with V15I, T25A, T31N, F32Y, R39K, G50D, A55E, P80S
B21: GT8-D36-13_CLK09 (antibody, V domains shown)
VH: B20 VH with S30T
VL: B19 VL with T25A, T31N, F32Y, R39K, L46V, G50D, A55E, P80S, I83V, K99T
B22: g5-D78-23_CLK09 (antibody, V domains shown)
VH: QVQLVQSGAEVKKPGASVKVSCKASGYTFTDYYMHWVRQAPGQGLEWVGWINPNSGGMNFAQRFQDRVTMTRDTSISTAYMELSRLQSDDSAVYFCARVGGLWIGEKWTFDIWGQGTMVTVSS
VL: B19 VL with T25A, F32Y, Q90L
B23: GT8-D36-15_CLK09 (antibody, V domains shown)
VH: B20 VH with S30T, Y32H, Y60N
VL: B19 VL with T25A, T31N, F32Y, R39T, G50D, A55E, P80S, Y91F
B24: g5-D78-8_CLK09 (antibody, V domains shown)
VH: B19 VH with M58I, V60I, Q65E, L70M, F76I, Y80H
VL: B19 VL with S52C
B25: GT8-D36-16_CLK09 (antibody, V domains shown)
VH: B20 VH with S30T
VL: B19 VL with T25A, T31N, F32Y, R39K, L46V, G50D, A55E, P80S
B26: GT8-D36-14_CLK09 (antibody, V domains shown)
VH: not shown
VL: B19 VL with T25A, T31N, F32Y, R39K, G50D, A55E
B27: GT8-D36-18_CLK21 (antibody, V domains shown)
VH: QVQLVQSGAEVKKPGASVKVSCKTSGYTFTDYYMHWVRQAPGQGLEWMGWINPNSGGTNYAQRFQGRVTMTRDTSISTAYMELSRLRSDDTAVYYCASALRDSQPWWFDPWGQGTLVTVSS
VL: DIQMTQSPSTLSASVGDRVTITCRASQSISSWLAWYQQKPGKAPKLLIYKASSLESGVPSRFSGSGSGTEFTLTISSLQPDDFATYYCQQYDTFGGGTKVEIK

Biological target: eOD-GT8 (monomeric ligand) (Human immunodeficiency virus 1, …)

| Binder | Kd [nM] |
| --- | --- |
| B1 | 38 |
| B2 | 11 |
| B3 | 100 |
| B4 | 23 |
| B5 | 12 |
| B6 | 12 |
| B7 | 12 |
| B8 | 4.9 |
| B9 | 0.87 |
| B10 | 2.1 |
| B11 | 3.4 |
| B12 | 0.92 |
| B13 | 2.1 |
| B14 | 4.3 |
| B15 | 0.42 |
| B16 | 0.29 |
| B17 | 2 |
| B18 | 0.26 |
| B19 | 0.2 |
| B20 | 4.09 |
| B21 | 534 |
| B22 | 0.078 |
| B23 | 260 |
| B24 | 0.14 |
| B25 | 37.9 |
| B26 | 26.9 |
| B27 | 2.63 |
